Measured values taken from the supplement of paper PMC10567573.

B1: JUNB (parent)
chain: FVKALDDLHKMNHVTPPNVSLGAT

Variants of: B1
Experiment: protein stability index of a GFP-peptide fusion (GPS, HEK-293T) (PSI 1-6); higher = more stable
Conditions: c terminus: a fixed tail appended
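Note: lentivirally expressed fusions sorted by FACS into six bins by GFP to DsRed ratio, PSI derived from sequencing read proportions per bin multiplied by bin number.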

Row | Variant | protein stability index
1 | FVKQLDDLHKMNHVTPPNVSLGAT | 1.94
2 | FVKRLDDLHKMNHVTPPNVSLGAT | 1.61
3 | FVKSLDDLHKMNHVTPPNVSLGAT | 2.03
4 | FVKTLDDLHKMNHVTPPNVSLGAT | 2.34
5 | FVKVLDDLHKMNHVTPPNVSLGAT | 1.77
6 | FVKWLDDLHKMNHVTPPNVSLGAT | 3.85
7 | FVKYLDDLHKMNHVTPPNVSLGAT | 2.85
8 | FVKAADDLHKMNHVTPPNVSLGAT | 2.23
9 | FVKACDDLHKMNHVTPPNVSLGAT | 1.87
10 | FVKADDDLHKMNHVTPPNVSLGAT | 2.72
11 | FVKAEDDLHKMNHVTPPNVSLGAT | 3.33
12 | FVKAFDDLHKMNHVTPPNVSLGAT | 2.1
13 | FVKAGDDLHKMNHVTPPNVSLGAT | 1.99
14 | FVKAHDDLHKMNHVTPPNVSLGAT | 1.9
15 | FVKAIDDLHKMNHVTPPNVSLGAT | 1.75
16 | FVKAKDDLHKMNHVTPPNVSLGAT | 2.27
17 | FVKAMDDLHKMNHVTPPNVSLGAT | 1.93
18 | FVKANDDLHKMNHVTPPNVSLGAT | 2.38
19 | FVKAPDDLHKMNHVTPPNVSLGAT | 2.2
20 | FVKAQDDLHKMNHVTPPNVSLGAT | 2.08
21 | FVKARDDLHKMNHVTPPNVSLGAT | 1.62
22 | FVKASDDLHKMNHVTPPNVSLGAT | 1.72
23 | FVKATDDLHKMNHVTPPNVSLGAT | 2.22
24 | FVKAVDDLHKMNHVTPPNVSLGAT | 1.86

Row | Variant | protein stability index
25 | FVKAWDDLHKMNHVTPPNVSLGAT | 3.57
26 | FVKAYDDLHKMNHVTPPNVSLGAT | 2.82
27 | FVKALADLHKMNHVTPPNVSLGAT | 2
28 | FVKALCDLHKMNHVTPPNVSLGAT | 4.16
29 | FVKALEDLHKMNHVTPPNVSLGAT | 1.97
30 | FVKALFDLHKMNHVTPPNVSLGAT | 3.31
31 | FVKALGDLHKMNHVTPPNVSLGAT | 2.07
32 | FVKALHDLHKMNHVTPPNVSLGAT | 1.57
33 | FVKALIDLHKMNHVTPPNVSLGAT | 2.58
34 | FVKALKDLHKMNHVTPPNVSLGAT | 2.39
35 | FVKALMDLHKMNHVTPPNVSLGAT | 2.54
36 | FVKALNDLHKMNHVTPPNVSLGAT | 2.83
37 | FVKALPDLHKMNHVTPPNVSLGAT | 2.08
38 | FVKALQDLHKMNHVTPPNVSLGAT | 1.34
39 | FVKALRDLHKMNHVTPPNVSLGAT | 1.59
40 | FVKALSDLHKMNHVTPPNVSLGAT | 1.46
41 | FVKALTDLHKMNHVTPPNVSLGAT | 1.88
42 | FVKALVDLHKMNHVTPPNVSLGAT | 2.59
43 | FVKALWDLHKMNHVTPPNVSLGAT | 3.45
44 | FVKALYDLHKMNHVTPPNVSLGAT | 4.17
45 | FVKALDALHKMNHVTPPNVSLGAT | 1.69
46 | FVKALDCLHKMNHVTPPNVSLGAT | 2.15
47 | FVKALDELHKMNHVTPPNVSLGAT | 1.57
48 | FVKALDFLHKMNHVTPPNVSLGAT | 2.71

Row | Variant | protein stability index
49 | FVKALDGLHKMNHVTPPNVSLGAT | 1.98
50 | FVKALDHLHKMNHVTPPNVSLGAT | 3.12
51 | FVKALDILHKMNHVTPPNVSLGAT | 2.48
52 | FVKALDKLHKMNHVTPPNVSLGAT | 1.8
53 | FVKALDMLHKMNHVTPPNVSLGAT | 2.62
54 | FVKALDNLHKMNHVTPPNVSLGAT | 1.96
55 | FVKALDPLHKMNHVTPPNVSLGAT | 3.02
56 | FVKALDQLHKMNHVTPPNVSLGAT | 1.7
57 | FVKALDRLHKMNHVTPPNVSLGAT | 1.93
58 | FVKALDSLHKMNHVTPPNVSLGAT | 1.47
59 | FVKALDTLHKMNHVTPPNVSLGAT | 2.16
60 | FVKALDVLHKMNHVTPPNVSLGAT | 2.27
61 | FVKALDWLHKMNHVTPPNVSLGAT | 2.24
62 | FVKALDYLHKMNHVTPPNVSLGAT | 2.2
63 | FVKALDDAHKMNHVTPPNVSLGAT | 1.51
64 | FVKALDDCHKMNHVTPPNVSLGAT | 1.77
65 | FVKALDDDHKMNHVTPPNVSLGAT | 1.86
66 | FVKALDDEHKMNHVTPPNVSLGAT | 2.31
67 | FVKALDDFHKMNHVTPPNVSLGAT | 2.59
68 | FVKALDDGHKMNHVTPPNVSLGAT | 2.26
69 | FVKALDDHHKMNHVTPPNVSLGAT | 2.26
70 | FVKALDDIHKMNHVTPPNVSLGAT | 2.64
71 | FVKALDDKHKMNHVTPPNVSLGAT | 2.3
72 | FVKALDDMHKMNHVTPPNVSLGAT | 1.62

Row | Variant | protein stability index
73 | FVKALDDNHKMNHVTPPNVSLGAT | 1.93
74 | FVKALDDPHKMNHVTPPNVSLGAT | 2.31
75 | FVKALDDQHKMNHVTPPNVSLGAT | 1.68
76 | FVKALDDRHKMNHVTPPNVSLGAT | 1.89
77 | FVKALDDSHKMNHVTPPNVSLGAT | 2.39
78 | FVKALDDTHKMNHVTPPNVSLGAT | 2.46
79 | FVKALDDVHKMNHVTPPNVSLGAT | 1.74
80 | FVKALDDYHKMNHVTPPNVSLGAT | 1.52
81 | FVKALDDLAKMNHVTPPNVSLGAT | 1.86
82 | FVKALDDLCKMNHVTPPNVSLGAT | 2.04
83 | FVKALDDLDKMNHVTPPNVSLGAT | 2.05
84 | FVKALDDLEKMNHVTPPNVSLGAT | 2.08
85 | FVKALDDLFKMNHVTPPNVSLGAT | 3.03
86 | FVKALDDLGKMNHVTPPNVSLGAT | 1.97
87 | FVKALDDLIKMNHVTPPNVSLGAT | 1.29
88 | FVKALDDLKKMNHVTPPNVSLGAT | 1.9
89 | FVKALDDLLKMNHVTPPNVSLGAT | 1.44
90 | FVKALDDLMKMNHVTPPNVSLGAT | 2.64
91 | FVKALDDLNKMNHVTPPNVSLGAT | 1.72
92 | FVKALDDLPKMNHVTPPNVSLGAT | 1.69
93 | FVKALDDLQKMNHVTPPNVSLGAT | 1.34
94 | FVKALDDLRKMNHVTPPNVSLGAT | 1.66
